# In article PMC9896449 (Nature Communications, 2023):
# B1: SARS-CoV-1 RBD (domain or fragment)
# chain: not shown
# Target: ShAb01 (nurse shark (Ginglymostoma cirratum))
# Assay: BLI
# Conditions: both partners purified
binder,measurement,value
B1,Kd,198 nM
